Laboratory results taken from PMC2994652 (Biochemistry, 2010).
Substitutions are numbered along the chain they refer to. In names and notes the source's numbering stands. Several values for one entry are separate records, joined by “and”; a condition that tells them apart may be missing. Identical values can stand only once.

B1: K123L Cox11-Trx (domain or fragment, Rhodobacter sphaeroides, UniProt P56940 32-191, looked up)
chain: NWFCRVTGFAGTTAVATEAPAEVLDRTVKVRFDASREAGMPWEFRPLQREMKLKIGETGLAFYEAYNPTDRTVAGTASYNVTPDAAGGYFALIACFCFTEQVLAPGERVEMPVTFYVDPAIIDDPDGRYVRQITLSYTFHETALTEEQAALAAESATDVN
B2: F129Y Cox11-Trx (domain or fragment, Rhodobacter sphaeroides, UniProt P56940 32-191, looked up)
chain: B1 chain with L92K, F98Y
B3: K123L-E131K Cox11-Trx (domain or fragment, Rhodobacter sphaeroides, UniProt P56940 32-191, looked up)
chain: B1 chain with E100K
B4: C126A Cox11-Trx (domain or fragment, Rhodobacter sphaeroides, UniProt P56940 32-191, looked up)
chain: B1 chain with L92K, C95A
B5: F127Y Cox11-Trx (domain or fragment, Rhodobacter sphaeroides, UniProt P56940 32-191, looked up)
chain: B1 chain with L92K, F96Y
B6: F127I Cox11-Trx (domain or fragment, Rhodobacter sphaeroides, UniProt P56940 32-191, looked up)
chain: B1 chain with L92K, F96I
B7: E131K Cox11-Trx (domain or fragment, Rhodobacter sphaeroides, UniProt P56940 32-191, looked up)
chain: B1 chain with L92K, E100K
B8: C35S-C126A-C128A Cox11-Trx (domain or fragment, Rhodobacter sphaeroides, UniProt P56940 32-191, looked up)
chain: B1 chain with C4S, L92K, C95A, C97A
B9: K123E Cox11-Trx (domain or fragment, Rhodobacter sphaeroides, UniProt P56940 32-191, looked up)
chain: B1 chain with L92E
B10: C126A-C128A Cox11-Trx (domain or fragment, Rhodobacter sphaeroides, UniProt P56940 32-191, looked up)
chain: B1 chain with L92K, C95A, C97A
B11: K123R Cox11-Trx (domain or fragment, Rhodobacter sphaeroides, UniProt P56940 32-191, looked up)
chain: B1 chain with L92R
B12: C128A Cox11-Trx (domain or fragment, Rhodobacter sphaeroides, UniProt P56940 32-191, looked up)
chain: B1 chain with L92K, C97A
B13: C35S Cox11-Trx (domain or fragment, Rhodobacter sphaeroides, UniProt P56940 32-191, looked up)
chain: B1 chain with C4S, L92K
B14: Y110E Cox11-Trx (domain or fragment, Rhodobacter sphaeroides, UniProt P56940 32-191, looked up)
chain: B1 chain with Y79E, L92K
B15: Cox11 domain of R. sphaeroides Cox11-Trx after cleavage from Trx (domain or fragment, Rhodobacter sphaeroides, UniProt P56940 32-191, looked up)
chain: B1 chain with L92K
B16: Y110R Cox11-Trx (domain or fragment, Rhodobacter sphaeroides, UniProt P56940 32-191, looked up)
chain: B1 chain with Y79R, L92K

The molecules below were run against yeast Cox11-Trx (fusion of the extramembrane domain of yeast Cox11 with E. coli thioredoxin) (yeast) (assay: SEC).
For “yeast Cox11-Trx (fusion of the extramembrane domain of yeast Cox11 with E. coli thioredoxin) (domain or fragment)”, the stoichiometry N was 2 and 4.

Molecular target: the molecule itself
Assay: SEC
For B1, the “stoichiometry N” value was 4. In the case of B2, the “stoichiometry N” value is reported as 4. In the case of B3, the “stoichiometry N” value is reported as 4. In the case of B4, the “stoichiometry N” value is reported as 4. In the case of B5, the “stoichiometry N” value is reported as 4. With B6 the “stoichiometry N” value was 4. For B7, the “stoichiometry N” value was 4. B8 was tested, and the “stoichiometry N” value was 4. B9 was tested, and the “stoichiometry N” value was 4. B10 was tested, and the “stoichiometry N” value was 4. In the case of B11, the “stoichiometry N” value is reported as 4. In the case of B12, the “stoichiometry N” value is reported as 4.

Molecular target: the molecule itself
Assay: SEC
Remark: another data set of the same source
For B13, the “stoichiometry N” value was 2 and 4. B14 was tested, and the “stoichiometry N” value was 4. With B1 the “stoichiometry N” value was 2. In the case of B3, the “stoichiometry N” value is reported as 2. In the case of B15, the “stoichiometry N” value is reported as 4. In the case of B16, the “stoichiometry N” value is reported as 4.
